Read-outs that look alike come from different tables or passages of the source. Each block holds one molecule with its values, some of them ahead of it.
How the values were obtained:
[1] = molecular target: T1, sst1 (Homo sapiens, UniProt P30872); test: Receptor autoradiography binding affinity, sst1; conditions: membrane pellet sections of human sst1-expressing CHO cells; mean ± SEM, n ≥ 3
T1 construct: expressed in transfected cells; host or cells: Chinese hamster ovary cells (gift of Drs. T. Reisine and G. Singh)
T1 sequence (P30872 whole entry): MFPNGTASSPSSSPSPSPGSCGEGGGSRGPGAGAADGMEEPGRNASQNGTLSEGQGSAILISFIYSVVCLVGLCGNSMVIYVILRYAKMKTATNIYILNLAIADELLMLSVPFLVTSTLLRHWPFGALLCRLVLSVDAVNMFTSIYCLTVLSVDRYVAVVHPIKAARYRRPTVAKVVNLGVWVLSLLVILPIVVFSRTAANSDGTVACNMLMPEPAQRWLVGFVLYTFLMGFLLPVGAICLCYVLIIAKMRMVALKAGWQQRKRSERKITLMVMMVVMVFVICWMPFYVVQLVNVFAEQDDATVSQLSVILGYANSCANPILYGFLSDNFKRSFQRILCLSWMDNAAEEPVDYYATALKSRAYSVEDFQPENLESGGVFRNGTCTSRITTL
Experimental: (§1) Cell membrane pellets were prepared from human sst1-expressing Chinese hamster ovary cells (kindly provided by Drs. T. Reisine and G. Singh, University of Pennsylvania, Philadelphia, Pa.); sst2-, sst3-, and sst4-expressing CCL39 cells (kindly provided by Dr. D. Hoyer, Novartis Pharma, Basel, Switzerland); and sst5-expressing human embryonic kidney 293 (HEK293) cells (kindly provided by Prof. Stefan Schulz, University of Jena, Germany) and stored at − 80 °C. Quantitative receptor autoradiography was performed on 20-μm-thick membrane pellet sections and quantitated as previously described.

[2] = molecular target: T2, sst2 (Homo sapiens, UniProt P30874); test: Receptor autoradiography binding affinity, sst2; conditions: membrane pellet sections of sst2-expressing CCL39 cells; mean ± SEM, n ≥ 3
T2 construct: expressed in transfected cells; host or cells: CCL39 cells (gift of Dr. D. Hoyer, Novartis)
T2 sequence (P30874 whole entry): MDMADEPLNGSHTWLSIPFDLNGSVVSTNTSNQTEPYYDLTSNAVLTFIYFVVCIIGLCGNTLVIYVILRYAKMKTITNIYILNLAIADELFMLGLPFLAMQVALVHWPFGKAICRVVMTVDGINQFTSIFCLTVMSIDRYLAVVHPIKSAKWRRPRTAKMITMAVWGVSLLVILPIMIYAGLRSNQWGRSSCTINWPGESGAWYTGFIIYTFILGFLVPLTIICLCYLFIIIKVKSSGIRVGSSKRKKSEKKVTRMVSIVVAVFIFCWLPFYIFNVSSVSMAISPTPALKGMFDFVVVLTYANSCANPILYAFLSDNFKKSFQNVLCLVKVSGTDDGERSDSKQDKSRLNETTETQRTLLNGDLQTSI
Experimental: as §1

[3] = molecular target: T3, sst3 (Homo sapiens, UniProt P32745); test: Receptor autoradiography binding affinity, sst3; conditions: membrane pellet sections of sst3-expressing CCL39 cells; mean ± SEM, n ≥ 3
T3 construct: expressed in transfected cells; host or cells: CCL39 cells (gift of Dr. D. Hoyer, Novartis)
T3 sequence (P32745 whole entry): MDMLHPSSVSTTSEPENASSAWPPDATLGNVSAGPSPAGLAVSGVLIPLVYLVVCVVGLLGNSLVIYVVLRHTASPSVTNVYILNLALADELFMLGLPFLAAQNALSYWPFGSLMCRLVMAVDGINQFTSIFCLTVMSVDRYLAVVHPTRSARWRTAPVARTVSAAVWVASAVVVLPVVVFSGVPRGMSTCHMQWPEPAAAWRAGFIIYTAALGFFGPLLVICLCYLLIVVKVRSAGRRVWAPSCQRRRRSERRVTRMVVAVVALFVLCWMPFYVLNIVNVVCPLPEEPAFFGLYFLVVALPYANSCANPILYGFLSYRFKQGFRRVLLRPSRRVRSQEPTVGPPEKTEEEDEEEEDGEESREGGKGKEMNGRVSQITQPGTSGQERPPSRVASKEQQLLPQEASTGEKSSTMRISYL
Experimental: as §1

[4] = molecular target: T4, sst4 (Homo sapiens, UniProt P31391); test: Receptor autoradiography binding affinity, sst4; conditions: membrane pellet sections of sst4-expressing CCL39 cells; mean ± SEM, n ≥ 3
T4 construct: expressed in transfected cells; host or cells: CCL39 cells (gift of Dr. D. Hoyer, Novartis)
T4 sequence (P31391 whole entry): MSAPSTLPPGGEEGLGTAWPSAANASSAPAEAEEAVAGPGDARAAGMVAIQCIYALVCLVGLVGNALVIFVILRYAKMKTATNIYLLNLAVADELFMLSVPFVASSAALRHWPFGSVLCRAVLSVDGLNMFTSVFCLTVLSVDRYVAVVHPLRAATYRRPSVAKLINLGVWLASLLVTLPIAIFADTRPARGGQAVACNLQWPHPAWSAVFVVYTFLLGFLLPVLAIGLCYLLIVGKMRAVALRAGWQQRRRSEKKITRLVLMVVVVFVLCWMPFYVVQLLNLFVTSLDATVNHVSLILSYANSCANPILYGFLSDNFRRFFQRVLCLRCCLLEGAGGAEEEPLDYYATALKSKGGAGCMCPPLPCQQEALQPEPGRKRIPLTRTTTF
Experimental: as §1

[5] = molecular target: T5, sst5 (Homo sapiens, UniProt P35346); test: Receptor autoradiography binding affinity, sst5; conditions: membrane pellet sections of sst5-expressing HEK293 cells; mean ± SEM, n ≥ 3
T5 construct: expressed in transfected cells; host or cells: HEK293 cells (gift of Prof. Stefan Schulz, University of Jena)
T5 sequence (P35346 whole entry): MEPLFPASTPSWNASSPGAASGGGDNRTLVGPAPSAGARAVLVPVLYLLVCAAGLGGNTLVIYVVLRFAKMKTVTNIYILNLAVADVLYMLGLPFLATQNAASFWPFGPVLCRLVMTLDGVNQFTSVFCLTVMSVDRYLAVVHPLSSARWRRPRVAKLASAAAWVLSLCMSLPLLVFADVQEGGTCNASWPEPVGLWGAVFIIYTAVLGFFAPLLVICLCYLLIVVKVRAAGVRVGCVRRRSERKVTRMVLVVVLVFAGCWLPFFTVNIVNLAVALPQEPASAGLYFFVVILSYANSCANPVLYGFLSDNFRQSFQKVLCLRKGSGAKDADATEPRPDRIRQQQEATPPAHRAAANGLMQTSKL
Experimental: as §1

[6] = type: physicochemical
Experimental: The distribution coefficients (log D) were determined using the shake-flask method (see Additional file 1). […]
equivalents of DIPEA were used. The cleavage and deprotection of the peptide-chelator conjugates was accomplished by incubating for 1.5h in TFA:thioanisole:triisopropylsilane:H2O 95:2:2:1. The resin was then filtered and washed with the above mixture, after which the filtrate was evaporated and triturated with diethyl ether to give the crude product. This was purified by semi-preparative HPLC to obtain the corresponding chelator-peptide conjugate with purity ≥97%.
Radiolabeling of Chelator-Peptide Conjugates
177Lu-SS-03: 10 µg of SS-03 in 300 µL sodium acetate buffer (0.4 mol/L, pH 5.0) were […]
phosphate buffer pH 11.5 (50 μL) and 0.1 M sodium citrate (5 μL) followed by SS-04 solution (30 μg, 25 μL) and freshly prepared SnCl2 solution in ethanol (30 μg, 25 μL). […]
99mTc-SS-05: 30 µg SS05 was added to 1 mL aqueous edda/tricine solution (5 mg edda, 15 mg tricine). […] All radiolabeled peptides were analyzed with analytical HPLC. […]
Each radiopeptide was added to a presaturated 1/1mixture of PBS/n-octanol, at a concentration of 100 nmol/L. The mixtures were vigorously shaken for 10 min and then centrifuged. The activity concentrations of equal volume samples of both phases were measured in a γ-counter and the partition coefficient (LogD) was calculated. […]

[7] = in vivo; set-up: species or system mice; conditions: female, athymic nude, mouse, iv, 10 pmol, total radioactivity
Experimental: All animal experiments were conducted in compliance with Swiss animal protection laws and associated regulations. The protocol was approved by the Cantonal Veterinary Ethics Committee of the University of Basel (approval #789). Female athymic nude mice (4–6 weeks old) were injected subcutaneously (s.c.) in the right shoulder with 10^7 HEK293-rsst2 cells in 100 μL sterile PBS. The tumours were allowed to grow for 14–18 days (tumour weight 100–200 mg).
The mice were injected into the tail vein with 100 μL/10 pmol/0.37 MBq of ^177Lu-SS-03 or ^99mTc-SS-04 and were euthanised at 1, 4, and 24 h post-injection (p.i.). Organs of interest and blood were collected, rinsed of excess blood, blotted dry, weighed, and counted in a γ-counter. To determine nonspecific uptake, three animals were pre-injected with 20 nmol of the relevant unlabelled peptide in 0.9% NaCl solution (0.1 mL); after 5 min, the radiopeptide was injected and the percentage of injected activity per gram (%IA/g) was calculated for each tissue. The total counts injected per animal were determined by extrapolation from counts of an aliquot taken from the injected solution as a standard.

[8] = molecular target: T1, sst1; conditions: mean ± SEM; cited from earlier work
Description: Table 2 Binding affinities (IC50, nM) of chelator-peptide conjugates | column: IC50 (nM)* / sst1

[9] = molecular target: T2, sst2; conditions: mean ± SEM; cited from earlier work
Description: Table 2 Binding affinities (IC50, nM) of chelator-peptide conjugates | column: IC50 (nM)* / sst2

[10] = molecular target: T3, sst3; conditions: mean ± SEM; cited from earlier work
Description: Table 2 Binding affinities (IC50, nM) of chelator-peptide conjugates | column: IC50 (nM)* / sst3

[11] = molecular target: T4, sst4; conditions: mean ± SEM; cited from earlier work
Description: Table 2 Binding affinities (IC50, nM) of chelator-peptide conjugates | column: IC50 (nM)* / sst4

[12] = molecular target: T5, sst5; conditions: mean ± SEM; cited from earlier work
Description: Table 2 Binding affinities (IC50, nM) of chelator-peptide conjugates | column: IC50 (nM)* / sst5

IC50 [1]: > 1 µM | IC50 [2]: 0.0053 ± 0.00017 µM | IC50 [3]: 0.72 ± 0.074 µM | IC50 [4]: 0.171 ± 0.035 µM | IC50 [5]: 0.228 ± 0.073 µM
Molecule: C[C@@H](O)[C@@H]1NC(=O)[C@H](CCCCN)NC(=O)[C@@H](Cc2c[nH]c3ccccc23)NC(=O)[C@H](Cc2ccc(O)cc2)NC(=O)[C@H](NC(=O)[C@H](Cc2ccc(Cl)cc2)NC(=O)C(CNCCN)CNCCN)CSSC[C@@H](C(=O)N[C@H](Cc2ccc(O)cc2)C(N)=O)NC1=O [SS-04, N4-(4-Cl)-Phe-Cyclo(D-Cys-Tyr-D-Trp-Lys-Thr-Cys)-D-Tyr-NH2]

Molecule: C[C@@H](O)[C@@H]1NC(=O)[C@H](CCCCN)NC(=O)[C@@H](Cc2c[nH]c3ccccc23)NC(=O)[C@H](Cc2ccc(O)cc2)NC(=O)[C@H](NC(=O)[C@H](Cc2ccc(Cl)cc2)NC(=O)c2ccc(NN)nc2)CSSC[C@@H](C(=O)N[C@H](Cc2ccc(O)cc2)C(N)=O)NC1=O [^99mTc-SS-05, metal not drawn]
log D [6]: − 2.03 ± 0.27

IC50 [1]: > 1 µM | IC50 [2]: 0.0017 ± 6e-05 µM | IC50 [3]: > 1 µM | IC50 [4]: 0.404 ± 0.092 µM | IC50 [5]: 0.564 ± 0.174 µM
Molecule: C[C@@H](O)[C@@H]1NC(=O)[C@H](CCCCN)NC(=O)[C@@H](Cc2c[nH]c3ccccc23)NC(=O)[C@H](Cc2ccc(O)cc2)NC(=O)[C@H](NC(=O)[C@H](Cc2ccc(Cl)cc2)NC(=O)CN2CCN(CC(=O)O)CCN(CC(=O)O)CCN(CC(=O)O)CC2)CSSC[C@@H](C(=O)N[C@H](Cc2ccc(O)cc2)C(N)=O)NC1=O [SS-03, DOTA-(4-Cl)-Phe-Cyclo(D-Cys-Tyr-D-Trp-Lys-Thr-Cys)-D-Tyr-NH2]

Molecule: C[C@@H](O)[C@@H]1NC(=O)[C@H](CCCCN)NC(=O)[C@@H](Cc2c[nH]c3ccccc23)NC(=O)[C@H](Cc2ccc(O)cc2)NC(=O)[C@H](NC(=O)[C@H](Cc2ccc(Cl)cc2)NC(=O)CN2CCN(CC(=O)O)CCN(CC(=O)O)CCN(CC(=O)O)CC2)CSSC[C@@H](C(=O)N[C@H](Cc2ccc(O)cc2)C(N)=O)NC1=O [^177Lu-SS-03, metal not drawn]
tissue uptake at 1 h ([7]; Adrenal uptake): 3.7 ± 0.63 %ID/g | tissue uptake at 4 h ([7]; Adrenal uptake): 2.9 ± 0.46 %ID/g | tissue uptake at 24 h ([7]; Adrenal uptake): 1.16 ± 0.46 %ID/g | tissue uptake at 1 h ([7]; Blood uptake): 0.57 ± 0.04 %ID/g | tissue uptake at 4 h ([7]; Blood uptake): 0.21 ± 0.04 %ID/g | tissue uptake at 24 h ([7]; Blood uptake): < 0.1 %ID/g | tissue uptake at 1 h ([7]; Bone uptake): 4.11 ± 0.53 %ID/g | tissue uptake at 4 h ([7]; Bone uptake): 2.77 ± 1.06 %ID/g | tissue uptake at 24 h ([7]; Bone uptake): 1.25 ± 0.16 %ID/g | tissue uptake at 1 h ([7]; Heart uptake): 0.69 ± 0.12 %ID/g | tissue uptake at 4 h ([7]; Heart uptake): 0.38 ± 0.07 %ID/g | tissue uptake at 24 h ([7]; Heart uptake): 0.11 ± 0.04 %ID/g | tissue uptake at 1 h ([7]; Intestine uptake): 3.13 ± 1.16 %ID/g | tissue uptake at 4 h ([7]; Intestine uptake): 2.28 ± 0.31 %ID/g | tissue uptake at 24 h ([7]; Intestine uptake): 0.27 ± 0.06 %ID/g | tissue uptake at 1 h ([7]; Kidney uptake): 15.2 ± 1.86 %ID/g | tissue uptake at 4 h ([7]; Kidney uptake): 17 ± 1.81 %ID/g | tissue uptake at 24 h ([7]; Kidney uptake): 7.35 ± 1.66 %ID/g | tissue uptake at 1 h ([7]; Liver uptake): 3 ± 0.66 %ID/g | tissue uptake at 4 h ([7]; Liver uptake): 1.75 ± 0.22 %ID/g | tissue uptake at 24 h ([7]; Liver uptake): 0.47 ± 0.07 %ID/g | tissue uptake at 1 h ([7]; Lung uptake): 13.2 ± 4.49 %ID/g | tissue uptake at 4 h ([7]; Lung uptake): 6.71 ± 1.37 %ID/g | tissue uptake at 24 h ([7]; Lung uptake): 0.74 ± 0.22 %ID/g | tissue uptake at 1 h ([7]; Muscle uptake): 0.22 ± 0.06 %ID/g | tissue uptake at 4 h ([7]; Muscle uptake): 0.12 ± 0.02 %ID/g | tissue uptake at 24 h ([7]; Muscle uptake): 0.07 ± 0.02 %ID/g | tissue uptake at 1 h ([7]; Pancreas uptake): 72.6 ± 13.8 %ID/g | tissue uptake at 4 h ([7]; Pancreas uptake): 54.5 ± 7.28 %ID/g | tissue uptake at 24 h ([7]; Pancreas uptake): 3.03 ± 0.62 %ID/g | tissue uptake at 1 h ([7]; Spleen uptake): 1.51 ± 0.19 %ID/g | tissue uptake at 4 h ([7]; Spleen uptake): 1.42 ± 0.77 %ID/g | tissue uptake at 24 h ([7]; Spleen uptake): 0.33 ± 0.06 %ID/g | tissue uptake at 1 h ([7]; Stomach uptake): 48.7 ± 13.1 %ID/g | tissue uptake at 4 h ([7]; Stomach uptake): 30.2 ± 4.25 %ID/g | tissue uptake at 24 h ([7]; Stomach uptake): 6.02 ± 1.4 %ID/g | tissue uptake at 1 h ([7]; Tumour uptake): 23.6 ± 1.28 %ID/g | tissue uptake at 4 h ([7]; Tumour uptake): 31.7 ± 4 %ID/g | tissue uptake at 24 h ([7]; Tumour uptake): 26.3 ± 4.42 %ID/g | tissue to tissue ratio at 1 h ([7]; Tumour/blood ratio): 41.3 | tissue to tissue ratio at 4 h ([7]; Tumour/blood ratio): 150 | tissue to tissue ratio at 24 h ([7]; Tumour/blood ratio): 361 | tissue to tissue ratio at 1 h ([7]; Tumour/bone ratio): 5.7 | tissue to tissue ratio at 4 h ([7]; Tumour/bone ratio): 11.5 | tissue to tissue ratio at 24 h ([7]; Tumour/bone ratio): 21.1 | tissue to tissue ratio at 1 h ([7]; Tumour/kidney ratio): 1.56 | tissue to tissue ratio at 4 h ([7]; Tumour/kidney ratio): 1.86 | tissue to tissue ratio at 24 h ([7]; Tumour/kidney ratio): 3.58 | tissue to tissue ratio at 1 h ([7]; Tumour/liver ratio): 7.9 | tissue to tissue ratio at 4 h ([7]; Tumour/liver ratio): 18.1 | tissue to tissue ratio at 24 h ([7]; Tumour/liver ratio): 55.8 | tissue to tissue ratio at 1 h ([7]; Tumour/muscles ratio): 110 | tissue to tissue ratio at 4 h ([7]; Tumour/muscles ratio): 259 | tissue to tissue ratio at 24 h ([7]; Tumour/muscles ratio): 372 | log D [6]: − 2.35 ± 0.22

Molecule: DOTA-pNO2Phe-cyclo[D-Cys-Tyr-D-Trp-Lys-Thr-Cys]-D-Tyr-NH2 (disulfide) [DOTA-sst2-ANT]
IC50 [8]: > 1 µM | IC50 [9]: 0.0015 ± 0.0004 µM | IC50 [10]: > 1 µM | IC50 [11]: 0.287 ± 0.027 µM | IC50 [12]: > 1 µM
